This passage reports Kd results from article PMC3059903 (EMBO Reports, 2011).

This assay has as its target laminin β1 LN–LEa1–4 fragment (mouse, UniProt P02469 22-509). Description: SPR.

Chain of laminin β1 LN–LEa1–4 fragment (P02469 22-509): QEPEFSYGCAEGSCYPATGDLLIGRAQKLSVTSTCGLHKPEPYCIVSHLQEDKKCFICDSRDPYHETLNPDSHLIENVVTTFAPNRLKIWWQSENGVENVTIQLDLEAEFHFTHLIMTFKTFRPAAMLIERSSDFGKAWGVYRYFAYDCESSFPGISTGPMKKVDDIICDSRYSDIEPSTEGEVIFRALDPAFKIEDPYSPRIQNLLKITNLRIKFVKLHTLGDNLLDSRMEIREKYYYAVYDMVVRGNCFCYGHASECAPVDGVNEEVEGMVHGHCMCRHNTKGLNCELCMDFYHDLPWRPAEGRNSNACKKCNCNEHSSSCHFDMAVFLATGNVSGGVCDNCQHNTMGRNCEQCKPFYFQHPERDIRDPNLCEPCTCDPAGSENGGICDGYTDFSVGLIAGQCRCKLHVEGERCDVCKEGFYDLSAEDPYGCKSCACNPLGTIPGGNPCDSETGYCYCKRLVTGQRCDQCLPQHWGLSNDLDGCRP

B1: laminin γ1 LN–LEa1–4 fragment (domain or fragment, mouse, UniProt P02468 34-492, looked up)
chain: AMDECADEGGRPQRCMPEFVNAAFNVTVVATNTCGTPPEEYCVQTGVTGVTKSCHLCDAGQQHLQHGAAFLTDYNNQADTTWWQSQTMLAGVQYPNSINLTLHLGKAFDITYVRLKFHTSRPESFAIYKRTREDGPWIPYQYYSGSCENTYSKANRGFIRTGGDEQQALCTDEFSDISPLTGGNVAFSTLEGRPSAYNFDNSPVLQEWVTATDIRVTLNRLNTFGDEVFNEPKVLKSYYYAISDFAVGGRCKCNGHASECVKNEFDKLMCNCKHNTYGVDCEKCLPFFNDRPWRRATAESASESLPCDCNGRSQECYFDPELYRSTGHGGHCTNCRDNTDGAKCERCRENFFRLGNTEACSPCHCSPVGSLSTQCDSYGRCSCKPGVMGDKCDRCQPGFHSLTEAGCRPCSCDLRGSTDECNVETGRCVCKDNVEGFNCERCKPGFFNLESSNPKGCTP
What is called Kd is the equilibrium constant for the complex coming apart. Read a low Kd as higher affinity. As for B1, the Kd was at least 5 µM.
